Laboratory results: the DeepSol protein solubility set

Assay: soluble on expression in E. coli; label from the status in PepcDB or PDB records

Row | Sequence | soluble on expression in E. coli
1 | MSLTGNPPNPAGIKTDYLWKKILTPQGLTDILENYAQVVEEKDEKTGKKKKVQIFPRYHQLDVVRKLLAHAEWHGAGMRYLVQHSAGSGKSNSIAWLAHQLISLKKDDKEIFDSIIVITDRRVLDKQIRDTIKQFAQVGSTVGHAERSGDLRKFIESGKKIIISTVQKFPFILDEIGNEHRGRKFAIIIDEAHSSQGGRTAAAMSEALSDSKDQKDPEDTINDALQKRMEARKMLPNASYFAFTATPKNKTLELFGEPYKDGDKIKHRPFHNYTMKQAIQEGFILDVLRYYTPVNSYYKLIKTVESDPEFDTKKAKKKLRKYVESHDYAIRLKAEIIVDHFQEQVIALNKIGGQARAMVVTNGIERAIQYYHAIRDYLLELNSPYKAIVAFSGEHEYGGVKVTEATLNGFPSSQIEDKIEEEPYRFLICADKFQTGYDEPLLHTMYVDKVLSGIKAVQTLSRLNRAHPKKHDVFVLDFMNDTDTIQDAFSDYYRTTVLSDETDPNKLHDLKSDLDSYQAYSPEQIEQFVELYLGGADRDKLDPILDVCVATYKDHLDEDEQVDFKSKAKAFSRTYGFLASILPYTNADWEKLSIFLNFLIPKLPAPREEDLSKGILEAIDMDSYRVEKQAVVNIQLPDSDSEIEPVPTEAGGFKPEPELDRLSNILKTFNDQFGNIRWTDSDRVHRLITEEIPARVAADVAYQNAKKNSDKQNAKIEHDKALARVMIALMKDDTQLFKLFSDNESFRRTLTDAIFERTYSEGHHHHHH | not soluble
2 | MFDFNDSMVSNAIIKVVGVGGGGGNAVQHMCEEVSDVEFFALNTDGQALSKSKVQNILQIGTNLTKGLGAGANPEIGKRAATEDRAKIEQLLEGADMVFITAGMGGGTGTGGAPVVAEVAKEMGILTVAVVTKPFPFEGPRRMKAAEQGIDELTKHVDSIITVPNEKLLSVLGKGASLIDAFNAANDVLGNAVKGVSELITKPGLINVDFADVRAVMTNMGLAMMGMGEASGENRAREAAEAAISSPLLEDINLDGAKGVIVNITAGMDMSIGEFEEVGEVIRSFISDEAIVIAGTVIDPDMSDSMKVTVVVTGIEKVAMKRGFGVEKTSSLQQSASSFSNKTSAPFLRKETEVVTGASNAPKTDSDDVNKSDIPSFLRRR | not soluble
3 | MNQIWLKVCAASDMQPGTIRRVNRVGAAPLAVYRVGDQFYATEDTCTHGIASLSEGTLDGDVIECPFHGGAFNVCTGMPASSPCTVPLGVFEVEVKEGEVYVAGEKKLEHHHHHH | soluble
4 | MGSDKIHHHHHHMSAIHIKYPALTFKAGQRALRHIRERGLQAADVGVLPGAAGGPKPLGIQGLDLALFGEWLPSAPRQRALIGASIGAWRFASACLDDPVAGIRRLGELYTEQDFAKGVTPAEISRSCQRMLDDLLEGRDGQLLANPHYRLNILVVKSHGQLAHDHRGRLGLGLGSVVASNLLGRSRLARHFERIILHDGRAAPPLDTLTDFPSRYLPLDLTNLRHALLASGSIPMVMQGVKDIPGAGAGTYRDGGLLDYHLDLPYRGDDLVLYPHFTDKVVPGWFDKALPWRKGDATRLQNVLLMTPSPQYLAALPYGKLPDRNDFKRFMGDAPGRKRYWYKAIAESQRLGDELLELTATGRLHERLQAL | not soluble
5 | MCGITGWVDWKEDLSNQHVILKKMANRIQHRGPDAEGFWFSPRAAFAHRRLIVIDPEGGAQPKTFRAGDYTYALTYNGEIYNFRELREQLQKCGHTFETHSDTEVLLHAYLEWKEDCVQHLNGIFAFALWDDQKQRLFLARDHLGVKPLFYTERNDSIIFGSEIKALLAHPSVPAEIDADGINEIFGLGLFRTPGCGVFKHIEEVRAGHSITFTRDKKVVTKYWNLESKVHTDSIEDTSSHILSILQDTVKRQLIADVPLVCMLSGGLDSSGITALAGKEFAAENKTLHTYSVDFVNSAKDFELTFARTGLDAPWVKRVSEHVGTSHHDIIVNAEELANHLFVPLRAKDLPSAGEMETSLYLLFCEMKKDATVALSGESADEVFGGYPWFHQEELLYVDKFPWLTNWKNTSPLLLHEISNQCNLENYIDTRFQEAILEVPTLEGESKKSAKQRQMFYLFLTRFLPFLLDRKDRMSMAVGFEVRVPFCDYRLVEYLWNVPFNIKSIDNIEKGILRRALKPALPDDVRNRRKSAYPTSQDPQYLQTIRHLSLDMCSNKNNPIFSLINHSTLLAIADGSNKEINNFEARSAMEYMLQVNEWLKTYHIHIA | not soluble
6 | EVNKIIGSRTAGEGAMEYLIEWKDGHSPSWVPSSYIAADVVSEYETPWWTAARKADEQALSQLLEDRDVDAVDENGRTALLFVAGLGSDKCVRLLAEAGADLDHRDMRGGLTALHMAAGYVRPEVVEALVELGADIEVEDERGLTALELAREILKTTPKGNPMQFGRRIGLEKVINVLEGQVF | soluble
